One block for each binder: values may come before it.
Key:
[1] = molecular target: αβ-tubulin heterodimer purified from porcine brains (porcine) (UniProt P02550); assay: SEC; quantitative SEC (Superdex 200 10/300) with SDS-PAGE densitometry of fractions; 1 αβ-tubulin per Alp14 subunit, with or without DRP; 100 mM KCl, 50 mM HEPES pH 7.0, 1 mM MgCl2, 1 mM β-mercaptoethanol
[2] = molecular target: DRP-bound αβ-tubulin (1:1 complex of porcine αβ-tubulin and DARPin D1) (porcine) (UniProt P02550); assay: as above
[3] = molecular target: αβ-tubulin heterodimer purified from porcine brains (porcine) (UniProt P02550); assay: SEC-MALS; Alp14 constructs mixed with soluble αβ-tubulin (with or without DRP), Superdex 200 Increase 10/300, 80-100 mM KCl
[4] = molecular target: αβ-tubulin heterodimer purified from porcine brains (porcine) (UniProt P02550); assay: SEC; quantitative SEC (Superdex 200 10/300) with SDS-PAGE densitometry of fractions; 1 αβ-tubulin per Alp14 subunit, with or without DRP; 200 mM KCl, 50 mM HEPES pH 7.0, 1 mM MgCl2, 1 mM β-mercaptoethanol
[5] = molecular target: DRP-bound αβ-tubulin (1:1 complex of porcine αβ-tubulin and DARPin D1) (porcine) (UniProt P02550); assay: as above
[6] = molecular target: αβ-tubulin heterodimer purified from porcine brains (porcine) (UniProt P02550); assay: SEC; quantitative SEC (Superdex 200 10/300) with SDS-PAGE densitometry of fractions; 2 αβ-tubulin per Alp14 subunit, with or without DRP; 100 mM KCl, 50 mM HEPES pH 7.0, 1 mM MgCl2, 1 mM β-mercaptoethanol
[7] = molecular target: DRP-bound αβ-tubulin (1:1 complex of porcine αβ-tubulin and DARPin D1) (porcine) (UniProt P02550); assay: as above
[8] = molecular target: αβ-tubulin heterodimer purified from porcine brains (porcine) (UniProt P02550); assay: SEC; quantitative SEC (Superdex 200 10/300) with SDS-PAGE densitometry of fractions; 2 αβ-tubulin per Alp14 subunit, with or without DRP; 200 mM KCl, 50 mM HEPES pH 7.0, 1 mM MgCl2, 1 mM β-mercaptoethanol
[9] = molecular target: DRP-bound αβ-tubulin (1:1 complex of porcine αβ-tubulin and DARPin D1) (porcine) (UniProt P02550); assay: as above
[10] = molecular target: DRP-bound αβ-tubulin (1:1 complex of porcine αβ-tubulin and DARPin D1) (porcine) (UniProt P02550); assay: ITC; TOG1 or TOG2 (100-250 μM) injected into a cell with 1:1 αβ-tubulin and DRP (20-40 μM); 25°C, 50 mM HEPES pH 7.3, 100 mM KCl, 1 mM MgCl2
[11] = molecular target: DRP-bound αβ-tubulin (1:1 complex of porcine αβ-tubulin and DARPin D1) (porcine) (UniProt P02550); assay: ITC; TOG1 or TOG2 (100-250 μM) injected into a cell with 1:1 αβ-tubulin and DRP (20-40 μM); 25°C, 50 mM HEPES pH 7.3, 200 mM KCl, 1 mM MgCl2
[12] = molecular target: DRP-bound αβ-tubulin (1:1 complex of porcine αβ-tubulin and DARPin D1) (porcine) (UniProt P02550); assay: SEC-MALS; Alp14 constructs mixed with soluble αβ-tubulin (with or without DRP), Superdex 200 Increase 10/300, 80-100 mM KCl

- TOG1-TOG2:αβ-tubulin molar ratio [1]: 0.98
- µM tubulin bound [1]: 4.31 µM
- TOG1-TOG2:αβ-tubulin molar ratio [2]: 0.96
- µM tubulin bound [2]: 4.23 µM
- stoichiometry N [3]: 4
- TOG1-TOG2:αβ-tubulin molar ratio [4]: 0.78
- µM tubulin bound [4]: 3.44 µM
- TOG1-TOG2:αβ-tubulin molar ratio [5]: 0.95
- µM tubulin bound [5]: 4.17 µM
- TOG1-TOG2:αβ-tubulin molar ratio [6]: 1.61
- µM tubulin bound [6]: 7.11 µM
- TOG1-TOG2:αβ-tubulin molar ratio [7]: 1.89
- stoichiometry N [7]: 4
- µM tubulin bound [7]: 8.33 µM
- TOG1-TOG2:αβ-tubulin molar ratio [8]: 1.24
- µM tubulin bound [8]: 5.46 µM
- TOG1-TOG2:αβ-tubulin molar ratio [9]: 1.36
- µM tubulin bound [9]: 6.02 µM
B1: wt-Alp14-dimer (S. pombe Alp14 residues 1-690) (domain or fragment)
chain: MSQDQEEDYSKLPLESRIVHKVWKVRLSAYEECSKSFSLSADGSDNCFELWNNQSELWKSVLTDSNVAAQEAGTAAFVAYCRFSDPSHLLKAREISVLSISEKCLTSPRAGTRENALEALMLLVEADSAAPVIESIIPSLSARSPKVIASNVAAIASLVEQFGAKVIPSKMIIPHISNLFGHADKNVRKEASRLTVNIYRWTGDPLKDLLFKDLRPVQTKELESLFAELPTEPPKQTRFLKSQQPTSEPNVETQVEEQPALENEESEPEPSDDQFDLVEEVDVLPNVDPNLETLMASSKWKDRKEALDKLLPVLSQPKIKDNDFFNLVAILTKSVSKDANIMVVINAAHCIQAMAKGLRSNFSKYASTSINALLERSKEKKANVIESLSSAMDAVLATSSLDDLAELIASFAGNKNPQIKSSCFSLFSRSFSNMTSLPSKFTVDTCAKACVPGVSDTFEPVRSAAAEALGVLMKLVGERAINQYLSPLDDIRKSKIRSFYETATVKAKAPTKKSKVKPSKQEESKVVVPSNAKAVKKSVVPSSPVVPSPRKATNKSLSMDVSKGNAFENGPLLPRPTTRPVSRGLSRGTSSSLQQKVKASTPLNSGALNETVQNLKNMELDDPAPQPAKHSRVDRYEHPKVLEDNDSTISSLESLKRENEELREQLKVEHEENISMQKQLSELKGELNTL

- Kd [10]: 70 nM
- Kd [11]: 1500 nM
B2: isolated TOG1 domain of Alp14 (residues 1-270) (domain or fragment)
chain: MSQDQEEDYSKLPLESRIVHKVWKVRLSAYEECSKSFSLSADGSDNCFELWNNQSELWKSVLTDSNVAAQEAGTAAFVAYCRFSDPSHLLKAREISVLSISEKCLTSPRAGTRENALEALMLLVEADSAAPVIESIIPSLSARSPKVIASNVAAIASLVEQFGAKVIPSKMIIPHISNLFGHADKNVRKEASRLTVNIYRWTGDPLKDLLFKDLRPVQTKELESLFAELPTEPPKQTRFLKSQQPTSEPNVETQVEEQPALENEESEPEP

- Kd [10]: 173 nM
- Kd [11]: 3250 nM
B3: isolated TOG2 domain of Alp14 (residues 320-510) (domain or fragment)
chain: KDNDFFNLVAILTKSVSKDANIMVVINAAHCIQAMAKGLRSNFSKYASTSINALLERSKEKKANVIESLSSAMDAVLATSSLDDLAELIASFAGNKNPQIKSSCFSLFSRSFSNMTSLPSKFTVDTCAKACVPGVSDTFEPVRSAAAEALGVLMKLVGERAINQYLSPLDDIRKSKIRSFYETATVKAKAP

- TOG1-TOG2:αβ-tubulin molar ratio [1]: 1.04
- µM tubulin bound [1]: 4.57 µM
- TOG1-TOG2:αβ-tubulin molar ratio [2]: 0.98
- µM tubulin bound [2]: 4.33 µM
- stoichiometry N [3]: 2
- stoichiometry N [12]: 2
- TOG1-TOG2:αβ-tubulin molar ratio [4]: 0.76
- µM tubulin bound [4]: 3.37 µM
- TOG1-TOG2:αβ-tubulin molar ratio [5]: 0.94
- µM tubulin bound [5]: 4.13 µM
- TOG1-TOG2:αβ-tubulin molar ratio [6]: 2
- µM tubulin bound [6]: 8.82 µM
- TOG1-TOG2:αβ-tubulin molar ratio [7]: 1.64
- µM tubulin bound [7]: 7.23 µM
- TOG1-TOG2:αβ-tubulin molar ratio [8]: 1.35
- µM tubulin bound [8]: 5.97 µM
- TOG1-TOG2:αβ-tubulin molar ratio [9]: 1.28
- µM tubulin bound [9]: 5.67 µM
B4: wt-Alp14-monomer (S. pombe Alp14 residues 1-510) (domain or fragment)
chain: MSQDQEEDYSKLPLESRIVHKVWKVRLSAYEECSKSFSLSADGSDNCFELWNNQSELWKSVLTDSNVAAQEAGTAAFVAYCRFSDPSHLLKAREISVLSISEKCLTSPRAGTRENALEALMLLVEADSAAPVIESIIPSLSARSPKVIASNVAAIASLVEQFGAKVIPSKMIIPHISNLFGHADKNVRKEASRLTVNIYRWTGDPLKDLLFKDLRPVQTKELESLFAELPTEPPKQTRFLKSQQPTSEPNVETQVEEQPALENEESEPEPSDDQFDLVEEVDVLPNVDPNLETLMASSKWKDRKEALDKLLPVLSQPKIKDNDFFNLVAILTKSVSKDANIMVVINAAHCIQAMAKGLRSNFSKYASTSINALLERSKEKKANVIESLSSAMDAVLATSSLDDLAELIASFAGNKNPQIKSSCFSLFSRSFSNMTSLPSKFTVDTCAKACVPGVSDTFEPVRSAAAEALGVLMKLVGERAINQYLSPLDDIRKSKIRSFYETATVKAKAP
